Measured values as given in publication PMC9000915.

Biological target: gp41 subunit of ADA.CM.v4 Env on hVLPs (CTD truncated, stop codon at 756) (HIV-1 (subtype B isolate ADA))
Assay: cryo-EM structure; cryo-ET with sub-tomogram averaging of Env on purified, AT-2-treated ADA.CM.v4 hVLPs; C3 map 9.13 Å, C1 map 10.67 Å; PDB 6ULC fitted as rigid body

With “gp41 subunit of ADA.CM.v4 Env on hVLPs (CTD truncated, stop codon at 756) (natural protein)” the stoichiometry N was 3.
